# According to publication PMC10269446:
# Biological target: T1, rOmpR (OmpR-6xHis) (Klebsiella pneumoniae ATCC43816?) (UniProt A6TF28)
# T1 sequence: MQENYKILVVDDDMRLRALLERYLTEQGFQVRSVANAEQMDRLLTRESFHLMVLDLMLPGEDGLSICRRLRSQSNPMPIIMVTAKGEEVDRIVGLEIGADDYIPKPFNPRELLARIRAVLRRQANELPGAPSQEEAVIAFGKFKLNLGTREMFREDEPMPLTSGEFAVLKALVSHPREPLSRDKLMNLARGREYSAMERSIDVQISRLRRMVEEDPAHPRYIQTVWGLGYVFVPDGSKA
# Assay: EMSA
sequence,measurement,value
ACAGAACGCTGAAATGCACGGAAAGTTGTCCGTTGGAAAATAATTAAACATTTATTCACTATTTTGCTACTTATTGTTTGAAATCACGGGGCGTCACCGTATAATTTGTCCGCTTTTTGATGCTTGACTCTTCGTCTTAAAGGACGTTTTATACGACACGCGACATACCTCAAAGGGAGCAGG (double strand) [Patp2],binding,no binding
